Measured values reported in publication PMC12150756 (Infection and Immunity, 2025).
Changes are numbered by the printed parent chain.

B1: sdAb9, anti-PfCSP camelid single-domain antibody (VHH)
VHH: QVQLQESGGGLVQAGGSLRLSCAASGRTFSSYSMGWFRQVPGKEREFVARITSSGGNTDYADSAKGRFTISRDNAKNTVYLQMSTLKPEDTAVYYCAADLWQYGRNSRAADYDYWGQGTQVTVSS
notes: from the library of the alpaca Attitude (immunized with PfCSPFL); Expressed from pMECS-GG; Same VHH family as sdAb1; source: E. coli WK6, periplasmic extract, purified (Ni-NTA, SEC); crude bacterial extract for the screening ELISA
B2: sdAb1, anti-PfCSP camelid single-domain antibody (VHH)
VHH: B1 VHH with Q39L, T52S, D59Y, A64V, K65R, S84N, T85S, W101L, Y103F, N106S
notes: from the library of the alpaca Attitude (immunized with PfCSPFL); Expressed from pMECS-GG; Same VHH family as sdAb9; source: E. coli WK6, periplasmic extract, purified (Ni-NTA, SEC); crude bacterial extract for the screening ELISA
B3: sdAb15 (VHH)
VHH: QVQLQESGGGLVQAGGSLRLSCVATGRPFDDYTVAWFRQAPGKERDFVAAISRSGVSTYYQDDVKGRFTISRDNARNTAYLSMNSLKPEDTAVYYCAARSTIRLLTDPSYDYWGQGTQVTVSS
B4: sdAb2 (VHH)
VHH: QVQLQESGGGLVQFGGSLRLSCAASGFTFSSANMSWVRQAPGKGLEWVSTISPGGGTTSYAGSVKGRFTISRDNAKNTLYLQMNALKPEDTAVYYCATGGPSSQESVYRGQGTQVTVSS
B5: sdAb18 (VHH)
VHH: QVQLQESGGGLVQPGGSLNLSCTAGVSLDYYAIGWFRQAPGKEREFVARISSSGGNTYYADSVRGRFTISRDNAKNTVYLQMNSLKPEDTAVYYCAADLLQFGRSSRAADYDYWGQGTQVTVSS
B6: sdAb6 (VHH)
VHH: QVQLQESGGGLVQAGGSLRVSCVGSGRAFSRYSMGWFRQFPGKEREFVACISSSGGAIDYADSVKGRFTISRDNAKNAVYLQMNSLKPDDTAVYYCAADQFRISTVPMGVIDYWGQGTQVTVSS
B7: sdAb10 (VHH)
VHH: QVQLQESGGGLVQPGGSLRLSCAASGRTFSSYTMGWFRQAPGKERELVAAISRSGLNTDYADSVKGRFTISRDNAKNTVYLQMNTLKPEDTAVYYCAARSTIRLLTDPSYDYWGQGTQVTVSS
B8: sdAb4 (VHH)
VHH: QVQLQESGGGLVQVGGSLRLSCAASGRTFSSYTMAWFRQAPGKEREFVAAISRSGSNTYYADSVKGRFTISRDNAKNTVYLQMSSLYPEDTAVYTCAARDAILLLTTTHYDYWGQGTQVTVSS
B9: sdAb7 (VHH)
VHH: QVQLQESGGGVVQTGGSLRLSCAASVRTFSNYALGWFRQAPGKEREFVARISSSGGNTYYADSVRGRFTISRDNAKNTVYLQMNSLKPEDTAVYYCAADLLQFGRSSRAADYDYWGQGTQVTVSS
B10: sdAb5 (VHH)
VHH: QVQLQESGGGLVQAGGSLRLSCAASGRTFGSYVMGWFRQAPGKEREFVAAISRSGGTTYYADSVKGRFAISRDNAKNTVFLQMNSLKPEDTAVYYCAATTTISMLVVLTTTPKYDYWGQGTQVTVSS
B11: sdAb8 (VHH)
VHH: QVQLQESGGGLVQAGGSLRLSCAASGRTVSSYTMGWFRQAPGKERSFVAASLRSGGSTYYSDSVKGRFTISRDNAKNTVYLQMNSLRPEDTAVYYCAADEQLAYNINYNYRNYDYWGQGTQVTVSS
B12: sdAb3 (VHH)
VHH: QVQLQESGGGLVQAGGSLRLSCAASGRTFTEYSMGWFRQAPGKEREFVARISWSGGSTYYADSVKGRFTISRDNAENTVYLQMTSLKPEDTAVYYCAADQLQFGRNSRAADYDDWGQGTQVTVSS

Target: T1, full-length CSP from P. falciparum 3D7 on the surface of transgenic P. berghei ANKA sporozoites (PfCSP-PbSPZs) (P. falciparum 3D7, UniProt Q7K740)
T1 construct: Full-length circumsporozoite protein of P. falciparum 3D7, expressed on transgenic P. berghei ANKA sporozoites; The same protein on midgut (MG) and salivary gland (SG) sporozoites; the assays tell them apart; also called PfCSP on MG SPZs; PfCSP on SG SPZs; source: transgenic P. berghei ANKA sporozoites isolated from midguts or salivary glands of Anopheles stephensi
T1 sequence (Q7K740 19-374): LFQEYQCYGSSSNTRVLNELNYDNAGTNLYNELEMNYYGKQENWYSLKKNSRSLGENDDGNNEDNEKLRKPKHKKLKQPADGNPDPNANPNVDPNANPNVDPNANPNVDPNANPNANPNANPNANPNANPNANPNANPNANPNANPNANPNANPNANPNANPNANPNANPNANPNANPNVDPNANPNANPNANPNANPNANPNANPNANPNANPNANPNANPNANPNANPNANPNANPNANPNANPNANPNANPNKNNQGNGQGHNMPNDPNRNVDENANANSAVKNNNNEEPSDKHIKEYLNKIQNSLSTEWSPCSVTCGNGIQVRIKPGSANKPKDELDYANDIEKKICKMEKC
Test: flow cytometry on cells; salivary gland PfCSP-PbSPZs (15- and 22-day-old), formaldehyde-fixed; sdAb incubated at ambient temperature; detected with anti-HA Alexa Fluor 647; MFI
Conditions: one partner purified

| Binder | binding result |
| --- | --- |
| B1 | binds |
| B2 | binds |

Target: T2, PfCSPC, C-terminal αTSR domain of P. falciparum NF54 circumsporozoite protein (E310-S384) (P. falciparum NF54, UniProt P19597)
T2 sequence (P19597 310-384): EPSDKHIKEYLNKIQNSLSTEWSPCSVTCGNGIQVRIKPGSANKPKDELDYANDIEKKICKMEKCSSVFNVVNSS
Test: not given
Conditions: not given

| Binder | binding result |
| --- | --- |
| B3 | binds |
| B4 | binds |
| B5 | binds |
| B6 | binds |
| B7 | binds |
| B8 | binds |
| B9 | binds |
| B10 | binds |
| B11 | binds |
| B12 | binds |

Target: T3, PfCSPFL, recombinant full-length P. falciparum NF54 circumsporozoite protein devoid of signal peptide and GPI … (P. falciparum NF54, UniProt P19597)
T3 sequence (P19597 20-384): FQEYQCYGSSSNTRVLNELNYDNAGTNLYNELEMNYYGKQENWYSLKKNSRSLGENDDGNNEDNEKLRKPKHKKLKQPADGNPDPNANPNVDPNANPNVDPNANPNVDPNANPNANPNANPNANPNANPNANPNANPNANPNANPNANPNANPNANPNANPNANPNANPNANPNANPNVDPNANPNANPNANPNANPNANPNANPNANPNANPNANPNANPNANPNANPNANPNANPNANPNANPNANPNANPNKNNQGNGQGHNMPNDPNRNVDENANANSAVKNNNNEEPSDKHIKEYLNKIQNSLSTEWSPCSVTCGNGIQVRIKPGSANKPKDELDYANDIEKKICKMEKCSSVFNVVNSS
Test: not given
Conditions: not given

| Binder | binding result |
| --- | --- |
| B3 | binds |
| B4 | binds |
| B5 | binds |
| B6 | binds |
| B7 | binds |
| B8 | binds |
| B9 | binds |
| B10 | binds |
| B11 | binds |
| B12 | binds |

Target: T3, PfCSPFL, recombinant full-length P. …
Test: ELISA; antigen coated at 1 µg/mL on Maxisorb plates, blocked with 5% milk in PBS; purified sdAb at 1 µg/mL, 1 h at room temperature, triplicates; detected with anti-HA mAb and anti-mouse-HRP
Conditions: both partners purified

| Binder | binding result |
| --- | --- |
| B1 | binds |
| B2 | binds |

Target: PbCSPFL, recombinant full-length P. berghei ANKA circumsporozoite protein devoid of signal peptide and GPI … (Plasmodium berghei ANKA, UniProt P23093)
Test: as above
Conditions: both partners purified

| Binder | binding result |
| --- | --- |
| B1 | no binding (tested: 1 µg/mL sdAb) |
| B2 | no binding (tested: 1 µg/mL sdAb) |

Target: T2, PfCSPC, C-terminal αTSR domain of P. …
Test: crystal structure; sdAb:PfCSPC complex prepared at 1.2:1, purified by SEC in 20 mM Tris-HCl, 150 mM NaCl, pH 7.5; sitting drop at 20°C; tags retained; data to ~2.1 Å
Conditions: both partners purified

| Binder | binding result |
| --- | --- |
| B1 | binds |
| B2 | binds |
